Patent publication US20230049732A1 (UNIVERSITY OF LOUISVILLE RESEARCH FOUNDATION, published 2023)

T1: HPV16 VLPs (human papillomavirus type 16, UniProt P03101 1-505)
T1 construct: Specificity control; also called human papillomavirus VLPs
T1 sequence: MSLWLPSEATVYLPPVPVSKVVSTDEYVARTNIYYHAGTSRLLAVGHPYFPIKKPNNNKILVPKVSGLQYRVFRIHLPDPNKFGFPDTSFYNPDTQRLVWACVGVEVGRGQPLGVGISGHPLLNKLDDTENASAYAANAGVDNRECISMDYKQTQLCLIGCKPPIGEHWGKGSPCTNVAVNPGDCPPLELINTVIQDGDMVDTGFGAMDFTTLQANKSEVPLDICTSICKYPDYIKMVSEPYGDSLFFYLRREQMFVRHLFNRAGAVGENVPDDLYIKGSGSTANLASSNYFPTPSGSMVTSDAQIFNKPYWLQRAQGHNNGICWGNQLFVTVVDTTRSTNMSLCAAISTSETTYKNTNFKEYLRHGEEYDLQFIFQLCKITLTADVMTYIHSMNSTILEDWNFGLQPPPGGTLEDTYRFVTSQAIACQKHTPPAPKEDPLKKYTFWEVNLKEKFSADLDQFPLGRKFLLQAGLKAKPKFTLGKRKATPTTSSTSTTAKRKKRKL

T2: QQW401TDQ-VLPs of B19V (parvovirus B19 genotype 1 (mutated), UniProt P07299 228-781)
T2 construct: also called construct B
T2 chain: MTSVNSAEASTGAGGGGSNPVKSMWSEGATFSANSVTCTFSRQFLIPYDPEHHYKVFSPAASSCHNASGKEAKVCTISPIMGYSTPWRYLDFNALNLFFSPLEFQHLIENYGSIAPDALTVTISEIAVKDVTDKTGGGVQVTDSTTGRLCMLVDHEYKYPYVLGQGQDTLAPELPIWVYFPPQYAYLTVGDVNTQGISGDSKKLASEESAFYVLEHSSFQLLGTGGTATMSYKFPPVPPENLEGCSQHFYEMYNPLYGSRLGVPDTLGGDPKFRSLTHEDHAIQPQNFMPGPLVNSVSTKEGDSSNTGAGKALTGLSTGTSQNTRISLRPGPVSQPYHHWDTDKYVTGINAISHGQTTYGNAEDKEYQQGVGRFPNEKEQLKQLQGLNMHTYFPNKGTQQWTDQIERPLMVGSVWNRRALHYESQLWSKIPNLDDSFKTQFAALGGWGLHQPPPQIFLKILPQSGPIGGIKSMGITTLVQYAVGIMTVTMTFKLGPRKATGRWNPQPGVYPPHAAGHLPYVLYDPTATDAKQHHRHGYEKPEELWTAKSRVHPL

B1: MAb #91 (antibody, V domains shown)
VH: EVQLQQSGPELVKPGASVKISCKASGYSFTDYFMNWVKQSHGKSLEWIGRINPYNGDSFYNQNFRGSVTLTVDKSSGTAHMELLSLTSEDSTVYYCGAYRYDGYAMDYWGQGTSVTVSS
VL: DVVMTQTPLSLPVSLGDQASISCRSSQSLVHSDGNTYLHWYLQKPGQSPKLLIYKVSNRFSGVPDRFSGSGSGTDFTLKISRVEAEDLGVYFCSQSTHVPFTFGSGTKLEIK
notes: Murine hybridoma antibody, supernatant; also called antibody 91
B2: MAb #25 (antibody, V domains shown)
VH: QVQLQQPGAELVRPGASVKLSCKASGYTFTNYWMHWVKQRPEQGLEWIGRIDPYDSETHYNQKFKDKAILTVDTSSNTAYMQLSSLTSEDSAVYYCTSYYYGSNYVWHFDVWGAGTTVTVSS
VL: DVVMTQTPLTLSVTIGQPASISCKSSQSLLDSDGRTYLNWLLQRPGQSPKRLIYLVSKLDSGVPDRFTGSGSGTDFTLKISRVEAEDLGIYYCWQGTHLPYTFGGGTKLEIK
notes: Murine hybridoma antibody, supernatant; also called antibody 25

Legend:
HPV16 VLPs = target: T1, HPV16 VLPs; test: ELISA, VLPs coated
QQW401TDQ-VLPs of B19V = target: T2, QQW401TDQ-VLPs of B19V; test: ELISA, intact VLPs coated, hybridoma supernatant

| Binder | binding result (HPV16 VLPs) | ELISA absorbance (405 nm) (QQW401TDQ-VLPs of B19V) |
| --- | --- | --- |
| B1 | no binding | 1.64 |
| B2 | no binding | 1.53 |
